Assay [1] deals with T1, mouse FAP (fibroblast activation protein alpha) overexpressed in B16F10 cells (B16F10-mFAP) (mouse, UniProt P97321 1-761).
T1 construct: whole, on cells; also called mouse FAP-expressing cell line
T1 sequence (looked up): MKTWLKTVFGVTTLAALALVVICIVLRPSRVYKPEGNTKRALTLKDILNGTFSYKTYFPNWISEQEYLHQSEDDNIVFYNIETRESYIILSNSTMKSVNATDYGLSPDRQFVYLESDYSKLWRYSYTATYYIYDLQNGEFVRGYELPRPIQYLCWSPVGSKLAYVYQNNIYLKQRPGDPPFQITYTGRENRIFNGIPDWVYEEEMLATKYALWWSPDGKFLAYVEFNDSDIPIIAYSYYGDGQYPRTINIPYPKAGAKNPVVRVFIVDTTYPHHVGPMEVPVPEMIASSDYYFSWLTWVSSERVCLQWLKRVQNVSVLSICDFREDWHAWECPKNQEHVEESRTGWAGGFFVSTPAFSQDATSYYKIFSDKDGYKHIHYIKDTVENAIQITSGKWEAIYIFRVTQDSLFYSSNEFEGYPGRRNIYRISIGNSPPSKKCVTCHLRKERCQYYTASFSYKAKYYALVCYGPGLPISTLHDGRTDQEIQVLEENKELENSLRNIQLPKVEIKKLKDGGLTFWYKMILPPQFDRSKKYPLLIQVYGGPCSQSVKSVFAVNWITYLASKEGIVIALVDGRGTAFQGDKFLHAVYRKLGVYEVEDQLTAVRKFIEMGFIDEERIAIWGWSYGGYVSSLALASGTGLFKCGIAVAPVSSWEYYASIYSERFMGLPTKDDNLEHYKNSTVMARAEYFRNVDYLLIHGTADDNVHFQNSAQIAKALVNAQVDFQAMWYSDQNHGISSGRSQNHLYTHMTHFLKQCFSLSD
Description: flow cytometry on B16F10-mFAP cells, detection with anti-mouse IgG2a antibody. The protocol: (§1) Specifically, the cell line was prepared by suspending in a FACS buffer solution at 1×10⁵ cells/100 μl, and treated with 1 μg of each T1.12m, T1.01m, T1.02m and T1.03m. The cells were washed twice with a FACS buffer solution. The cells were stained with an anti-mouse IgG2a antibody (Biolegend). The negative control was stained only with an anti-mouse IgG2a antibody (Biolegend). The expression rate of the stained cells was measured using BD LSR and analyzed using a FlowJo software.
(In general: A flow cytometer gives signals particle by particle.)

The target in a further assay is T2, B16F10.
T2 construct: not a protein target; also called parental B16F10 cells, without the transduced mouse FAP gene
Description: flow cytometry on parental B16F10 cells, detection with anti-mouse IgG2a antibody. The method, then: as §1

For assay [2], the target named is T1, mouse FAP (fibroblast activation …). Description: flow cytometry on B16F10-mFAP cells, 1 µg protein per 1x10^5 cells, anti-mouse IgG2a detection. The method, then:
as §1

The target in another assay is T3, recombinant mouse FAP (mouse, UniProt P97321 26-761).
T3 construct: Soluble analyte in SPR
T3 sequence (looked up): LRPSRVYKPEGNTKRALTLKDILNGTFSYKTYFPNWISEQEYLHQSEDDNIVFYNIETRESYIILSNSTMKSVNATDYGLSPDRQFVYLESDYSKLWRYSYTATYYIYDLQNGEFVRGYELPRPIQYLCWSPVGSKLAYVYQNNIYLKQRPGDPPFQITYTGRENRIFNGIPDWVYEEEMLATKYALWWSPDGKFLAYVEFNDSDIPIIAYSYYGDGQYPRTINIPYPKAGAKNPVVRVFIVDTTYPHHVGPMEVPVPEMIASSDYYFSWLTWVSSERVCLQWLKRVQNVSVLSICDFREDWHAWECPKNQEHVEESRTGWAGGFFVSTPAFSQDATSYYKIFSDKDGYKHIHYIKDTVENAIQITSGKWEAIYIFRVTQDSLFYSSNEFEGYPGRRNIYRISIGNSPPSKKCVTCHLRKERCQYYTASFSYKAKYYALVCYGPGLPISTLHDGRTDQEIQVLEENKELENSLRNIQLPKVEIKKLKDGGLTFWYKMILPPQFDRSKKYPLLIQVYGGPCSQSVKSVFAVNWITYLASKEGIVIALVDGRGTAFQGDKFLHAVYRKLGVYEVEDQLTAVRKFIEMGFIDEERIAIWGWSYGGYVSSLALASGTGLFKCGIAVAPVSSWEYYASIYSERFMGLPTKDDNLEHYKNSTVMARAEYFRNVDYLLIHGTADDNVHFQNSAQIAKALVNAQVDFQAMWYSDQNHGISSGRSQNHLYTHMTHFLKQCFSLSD
Description: SPR, fusion protein captured by anti-mouse IgG (Fc) on a CM5 chip, mouse FAP as analyte 1.5625-200 nM, 1:1 binding model. The protocol:
The surface of the CM5 chip was activated with a 1:1 mixture of […] (N-hydroxysuccinimide) and […] (1-Ethyl-3-(3-dimethylaminopropyl) carbodiimide), and 25 μg/ml of anti-mouse IgG (Fc) antibody was immobilized for 400 seconds at a rate of 10 μl/min. The remaining active ester groups were blocked with 1 M ethanolamine. T1.01m, T1.02m and T1.03m were diluted to 2 μg/ml and reacted on the CM5 chip immobilized with the anti-mouse IgG (Fc) antibody. The recombinant mouse FAP was diluted to 200 nM in 1×HBS-EP+buffer solution and diluted by serial dilution. The diluted recombinant mouse FAP was reacted at a rate of 30 μl/min. The association and dissociation times were 180 seconds and 400 seconds, respectively. After the dissociation, stabilization was performed for 60 seconds, and then a regeneration was performed for 30 seconds with a 10 mM glycine pH 1.5 solution at a rate of 30 μl/min.
A general note: SPR reads the build-up and loss of mass on a sensor chip optically.

B1: T1.03m (anti-mu FAP/mu IL-12 mut2, mu IgG2a DANG) (bispecific antibody)
heavy: QVQLQQSGAELARPGASVNLSCKASGYTFTNNGINWLKQRTGQGLEWIGEIYPRSTNTLYNEKFKGKATLTADRSSNTAYMELRSLTSEDSAVYFCARTLTAPFAFWGQGTLVTVSAAKTTAPSVYPLAPVCGDTTGSSVTLGCLVKGYFPEPVTLTWNSGSLSSGVHTFPAVLQSDLYTLSSSVTVTSSTWPSQSITCNVAHPASSTKVDKKIEPRGPTIKPCPPCKCPAPNLLGGPSVFIFPPKIKDVLMISLSPIVTCVVVAVSEDDPDVQISWFVNNVEVHTAQTQTHREDYGSTLRVVSALPIQHQDWMSGKEFKCKVNNKDLPAPIERTISKPKGSVRAPQVYVLPPPEEEMTKKQVTLWCMVTDFMPEDIYVEWTNNGKTELNYKNTEPVLDSDGSYFMYSKLRVEKKNWVERNSYSCSVVHEGLHNHHTTKSFSRTPGK
light: QIVLTQSPAIMSASPGEKVTMTCSASSGVNFMHWYQQKSGTSPKRWIFDTSKLASGVPARFSGSGSGTSYSLTISSMEAEDAATYYCQQWSFNPPTFGGGTKLEIKRADAAPTVSIFPPSSEQLTSGGASVVCFLNNFYPKDINVKWKIDGSERQNGVLNSWTDQDSKDSTYSMSSTLTLTKDEYERHNSYTCEATHKTSTSPIVKSFNRNEC
chain: MWELEKDVYVVEVDWTPDAPGETVNLTCDTPEEDDITWTSDQRHGVIGSGKTLTITVKEFLDAGQYTCHKGGETLSHSHLLLHKKENGIWSTEILKNFKNKTFLKCEAPNYSGRFTCSWLVQRNMDLKFNIKSSSSSPDSRAVTCGMASLSAEKVTLDQRDYEKYSVSCQEDVTCPTAEETLPIELALEARQQNKYENYSTSFFIRDIIKPDPPKNLQMKPLKNSQVEVSWEYPDSWSTPHSYFSLKFFVRIQAAAEKMAETEEGCNQKGAFLVEKTSTEVQCKGGNVCVQAQDRYYNSSCSKWACVPCRVRSGGGGSGGGGSGGGGSRVIPVSGPARCLSQSRNLLKTTDDMVKTAREKLKHYSCTAEDIDHEDITRDQTSTLKTCLPLELHKNESCLATRETSSTTRGSCLPPQKTSLMMTLCLGSIYEDLKMYQTEFQAINAALQNHNHQQIILDKGMLVAIDELMQSLNHNGETLRQKPPVGEADPYRVKMKLCILLHAFSTRVVTINRVMGYLSSAGGGGSGGGGSEPRGPTIKPCPPCKCPAPNLLGGPSVFIFPPKIKDVLMISLSPIVTCVVVAVSEDDPDVQISWFVNNVEVHTAQTQTHREDYGSTLRVVSALPIQHQDWMSGKEFKCKVNNKDLPAPIERTISKPKGSVRAPQVYVLPPPEEEMTKKQVTLSCAVTDFMPEDIYVEWTNNGKTELNYKNTEPVLDSDGSYFMVSKLRVEKKNWVERNSYSCSVVHEGLHNHHTTKSFSRTPGK
notes: Mouse surrogate, knob-in-hole heterodimer
As usually defined, the Kd is the concentration at which binding is half-saturated. One may read the koff as a measure of how fast the partners let go of each other. As usually defined, the kon is a measure of how fast the partners come together. B1: the “percent of cells in the positive gate (mFAP-PE)” value in assay [1] is 91.6%. The “percent of cells in the positive gate (mFAP-PE)” value with B16F10 worked out at 0.89%. For the same molecule, the “percent of cells bound” value in assay [2] was at least 99%. Also, in the assay with recombinant mouse FAP, the Kd amounted to 1.25 nM, the koff stood at 7.66e-05 s⁻¹ and the association rate constant (kon) was found to be 61200 M⁻¹ s⁻¹.
